Data as given in the RNAGym collection of RNA variant scans (doi:10.7554/elife.80360).

B1: Hammerhead Ribozyme (parent)
chain: ACCGGAUGUGCUUUCCGGUCUGAUGAGUCCGUGAGGACGAAACAG

Variants of: B1
Assay: self-cleavage, relative activity (ratio to wild type); higher = more cleavage; co-transcriptional

Variant	self-cleavage
ACCGGAUGUGCUUUCCGGUCGUAUGAGUCCGUGAGGACGAAACAG [U21G G22U]	0.426
ACCGGAUGUGCUUUCCGGUCGAAUGAGUCCGUGAGGACGAAACAG [U21G G22A]	0.324
ACCGGAUGUGCUUUCCGGUCGCAUGAGUCCGUGAGGACGAAACAG [U21G G22C]	0.292
ACCGGAUGUGCUUUCCGGUCGGAUGAGUCUGUGAGGACGAAACAG [U21G C30U]	0.837
ACCGGAUGUGCUUUCCGGUCGGAUGAGUCAGUGAGGACGAAACAG [U21G C30A]	0.419
ACCGGAUGUGCUUUCCGGUCGGAUGAGUCGGUGAGGACGAAACAG [U21G C30G]	0.373
ACCGGAUGUGCUUUCCGGUCGGAUGAGUCCGUGAAGACGAAACAG [U21G G35A]	0.28
ACCGGAUGUGCUUUCCGGUCGGAUGAGUCCGUGACGACGAAACAG [U21G G35C]	0.306
ACCGGAUGUGCUUUCCGGUCGGAUGAGUCCGUGAUGACGAAACAG [U21G G35U]	0.413
ACCGGAUGUGCUUUCCGGUCGGAUGAGUCCGUGAGGAGGAAACAG [U21G C38G]	0.303
ACCGGAUGUGCUUUCCGGUCGGAUGAGUCCGUGAGGAAGAAACAG [U21G C38A]	0.388
ACCGGAUGUGCUUUCCGGUCGGAUGAGUCCGUGAGGAUGAAACAG [U21G C38U]	0.374
ACCGGAUGUGCUUUCCGGUCGGAUGAGUCCUUGAGGACGAAACAG [U21G G31U]	0.743
ACCGGAUGUGCUUUCCGGUCGGAUGAGUCCCUGAGGACGAAACAG [U21G G31C]	0.577
ACCGGAUGUGCUUUCCGGUCGGAUGAGUCCAUGAGGACGAAACAG [U21G G31A]	0.797
ACCGGAUGUGCUUUCCGGUCGGAUGAGGCCGUGAGGACGAAACAG [U21G U28G]	0.564
ACCGGAUGUGCUUUCCGGUCGGAUGAGACCGUGAGGACGAAACAG [U21G U28A]	0.4
ACCGGAUGUGCUUUCCGGUCGGAUGAGCCCGUGAGGACGAAACAG [U21G U28C]	0.381
ACCGGAUGUGCUUUCCGGUCGGAUGAGUCCGUGAGCACGAAACAG [U21G G36C]	0.365

Variant	self-cleavage
ACCGGAUGUGCUUUCCGGUCGGAUGAGUCCGUGAGAACGAAACAG [U21G G36A]	0.382
ACCGGAUGUGCUUUCCGGUCGGAUGAGUCCGUGAGUACGAAACAG [U21G G36U]	0.333
ACCGGAUGUGCUUUCCGGUCGGAUGAGUCCGUGAGGACUAAACAG [U21G G39U]	0.37
ACCGGAUGUGCUUUCCGGUCGGAUGAGUCCGUGAGGACCAAACAG [U21G G39C]	0.314
ACCGGAUGUGCUUUCCGGUCGGAUGAGUCCGUGAGGACAAAACAG [U21G G39A]	0.354
ACCGGAUGUGCUUUCCGGUCGGAUGAGUCCGUGAGGACGAAUCAG [U21G A42U]	0.36
ACCGGAUGUGCUUUCCGGUCGGAUGAGUCCGUGAGGACGAACCAG [U21G A42C]	0.393
ACCGGAUGUGCUUUCCGGUCGGAUGAGUCCGUGAGGACGAAGCAG [U21G A42G]	0.223
ACCGGAUGUGCUUUCCGGUCGGAUGAGUCCGUGAGGACGAAACCG [U21G A44C]	0.285
ACCGGAUGUGCUUUCCGGUCGGAUGAGUCCGUGAGGACGAAACGG [U21G A44G]	0.697
ACCGGAUGUGCUUUCCGGUCGGAUGAGUCCGUGAGGACGAAACUG [U21G A44U]	0.285
ACCGGAUGUGCUUUCCGGUCGGAUGAGUCCGCGAGGACGAAACAG [U21G U32C]	0.523
ACCGGAUGUGCUUUCCGGUCGGAUGAGUCCGGGAGGACGAAACAG [U21G U32G]	0.549
ACCGGAUGUGCUUUCCGGUCGGAUGAGUCCGAGAGGACGAAACAG [U21G U32A]	0.389
ACCGGAUGUGCUUUCCGGUCGGAUAAGUCCGUGAGGACGAAACAG [U21G G25A]	0.349
ACCGGAUGUGCUUUCCGGUCGGAUUAGUCCGUGAGGACGAAACAG [U21G G25U]	0.373
ACCGGAUGUGCUUUCCGGUCGGAUCAGUCCGUGAGGACGAAACAG [U21G G25C]	0.361
ACCGGAUGUGCUUUCCGGUCGGAUGAGUCCGUGAGGACGAAACAU [U21G G45U]	0.281
ACCGGAUGUGCUUUCCGGUCGGAUGAGUCCGUGAGGACGAAACAC [U21G G45C]	0.278

Variant	self-cleavage
ACCGGAUGUGCUUUCCGGUCGGAUGAGUCCGUGAGGACGAAACAA [U21G G45A]	0.4
ACCGGAUGUGCUUUCCGGUCGGAUGAGUCCGUUAGGACGAAACAG [U21G G33U]	0.798
ACCGGAUGUGCUUUCCGGUCGGAUGAGUCCGUCAGGACGAAACAG [U21G G33C]	0.867
ACCGGAUGUGCUUUCCGGUCGGAUGAGUCCGUAAGGACGAAACAG [U21G G33A]	0.704
ACCGGAUGUGCUUUCCGGUCUAAUGAGUCCGUGAGGACGAAACAG [G22A]	0.356
ACCGGAUGUGCUUUCCGGUCGGAUGAGUCCGUGAGGACGAUACAG [U21G A41U]	0.333
ACCGGAUGUGCUUUCCGGUCGGAUGAGUCCGUGAGGACGAGACAG [U21G A41G]	0.29
ACCGGAUGUGCUUUCCGGUCGGAUGAGUUCGUGAGGACGAAACAG [U21G C29U]	0.471
ACCGGAUGUGCUUUCCGGUCGGAUGAGUGCGUGAGGACGAAACAG [U21G C29G]	0.285
ACCGGAUGUGCUUUCCGGUCGGAUGAGUACGUGAGGACGAAACAG [U21G C29A]	0.3
ACCGGAUGUGCUUUCCGGUCGGAAGAGUCCGUGAGGACGAAACAG [U21G U24A]	0.814
ACCGGAUGUGCUUUCCGGUCGGACGAGUCCGUGAGGACGAAACAG [U21G U24C]	0.391
ACCGGAUGUGCUUUCCGGUCGGAGGAGUCCGUGAGGACGAAACAG [U21G U24G]	0.536
ACCGGAUGUGCUUUCCGGUCGGAUGAGUCCGUGAGGACGAAAGAG [U21G C43G]	0.324
ACCGGAUGUGCUUUCCGGUCGGAUGAGUCCGUGAGGACGAAAUAG [U21G C43U]	0.317
ACCGGAUGUGCUUUCCGGUCGGAUGAGUCCGUGAGGACGAAAAAG [U21G C43A]	0.346
ACCGGAUGUGCUUUCCGGUCGGAUGAUUCCGUGAGGACGAAACAG [U21G G27U]	0.296
ACCGGAUGUGCUUUCCGGUCGGAUGACUCCGUGAGGACGAAACAG [U21G G27C]	0.4
ACCGGAUGUGCUUUCCGGUCGGAUGAAUCCGUGAGGACGAAACAG [U21G G27A]	0.39
